Source: patent US20110053865A1 (published 2011)
Like-named read-outs stand apart in the source and are kept apart here.

Key:
[1] = target: T1, recombinant human IL-12 (human, UniProt P29459 23-219; P29460 23-328); test: Biacore
T1 chain 1: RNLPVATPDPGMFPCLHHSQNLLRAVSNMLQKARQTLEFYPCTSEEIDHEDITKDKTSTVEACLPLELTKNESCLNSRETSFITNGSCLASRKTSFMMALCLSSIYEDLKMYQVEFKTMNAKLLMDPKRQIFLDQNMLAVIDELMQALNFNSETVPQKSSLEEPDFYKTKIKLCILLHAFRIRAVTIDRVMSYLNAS
T1 chain 2: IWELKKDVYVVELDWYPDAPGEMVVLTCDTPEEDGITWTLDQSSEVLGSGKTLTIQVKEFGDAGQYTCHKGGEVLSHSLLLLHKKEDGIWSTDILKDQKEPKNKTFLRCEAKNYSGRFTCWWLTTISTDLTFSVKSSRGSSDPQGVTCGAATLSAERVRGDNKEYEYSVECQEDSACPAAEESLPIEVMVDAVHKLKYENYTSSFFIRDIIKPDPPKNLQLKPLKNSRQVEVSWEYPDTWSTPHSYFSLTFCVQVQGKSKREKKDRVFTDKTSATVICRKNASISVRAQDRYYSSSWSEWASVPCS

[2] = target: T2, recombinant human IL-23 (p19/p40) (human, UniProt Q9NPF7 20-189; P29460 23-328); test: alpha-screen hIL-23/hIL-23R; Fig 7
T2 chain 1: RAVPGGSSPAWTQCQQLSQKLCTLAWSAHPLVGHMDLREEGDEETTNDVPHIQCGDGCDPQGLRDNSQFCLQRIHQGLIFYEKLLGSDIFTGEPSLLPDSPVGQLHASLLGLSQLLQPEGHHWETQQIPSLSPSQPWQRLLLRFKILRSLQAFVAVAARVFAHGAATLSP
T2 chain 2: T1 chain 2

[3] = target: T2, recombinant human IL-23 (p19/p40); test: alpha-screen hIL-23/hIL-23R; Fig 6
[4] = target: T2, recombinant human IL-23 (p19/p40); test: Biacore; eBiosc hIL23
[5] = target: T1, recombinant human IL-12; test: Biacore

B1: P23IL3B8 (VHH)
VHH: EVQLVESGGGLVQPGGSLRLSCAASGFTFSSSVMFWLRQAPGKGLEWLSTIKPTGSTIYPGSGKGRFTISRDNAKNTLYLQINNLKPEDTALYYCARDIGGTVRGQGTQVTVSS
- koff [1]: 0.00243 s⁻¹

B2: 119A3-119G7 (antibody)
chain: EVQLVESGGGLVQAGGSLRLSCAASGRIFSLPASGNIFNLLTIAWHRQAPGMQRELVATINSGSRTNYADSVKGRFTISRDNAQKTVYLQMNNLKPEDTAVYYCQTSGSGSPNFWGQGTQVTVSSGGGGSGGGGSGGGGSGGGGSGGGGSGGGGSGGGGSEVQLVESGGGLVQAGGSLTLSCAVSGLTFNNYAMGWFRQVPGKEREFVAAISRSGLRTFYSDSVKGRFTISRDSAKSTVYVQMNNLKPEDTAVYFCAADRRTYYSEGPSLTDTLRYDYWGQGTQVTVSS
- IC50 [2]: 0.132 nM

B3: 121A2-119G7 (antibody)
chain: EVQLVESGGGLVQAGGSLRLSCAASGSIFNFNYMGWFRQAPGKEREFVAAIRWSGSSTYYADSVKGRFTISRDDAKNTVALQMNSLKPEDTAIYYCALRKGIPYSTSDRVIKGVNDYDYWGQGTQVTVSSGGGGSGGGGSGGGGSGGGGSGGGGSGGGGSGGGGSEVQLVESGGGLVQAGGSLTLSCAVSGLTFNNYAMGWFRQVPGKEREFVAAISRSGLRTFYSDSVKGRFTISRDSAKSTVYVQMNNLKPEDTAVYFCAADRRTYYSEGPSLTDTLRYDYWGQGTQVTVSS
- IC50 [3]: 0.131 nM

B4: P23IL81G2 (VHH)
VHH: EVQLVESGGGLVQPGGSLRLSCIASGLPFSTKSMGWFRQAPGKEREFVARISPGGTSRYYGDFVKGRFAISRDNAKNTTWLQMNSLKAEDTAVYYCASGERSTYIGSNYYRTNEYDYWGTGTQVTVSS
- koff [4]: 0.000257 s⁻¹

B5: P23IL81E10 (VHH)
VHH: EVQLVESGGGLVQAGGSLRLSCVASGRTFNTYGMGWFRQAPGKEREFVAANNWSGGATSYADSVKGRFTISRDNAKNTVFLQMNTLKPEDTAVYYCAAADRGGGWLVVRENDYDYWGQGTQVTVSS
- koff [5]: 0.00266 s⁻¹
- koff [1]: 0.00266 s⁻¹

B6: P23IL-121A2 (VHH)
VHH: EVQLVESGGGLVQAGGSLRLSCAASGSIFNFNYMGWFRQAPGKEREFVAAIRWSGSSTYYADSVKGRFTISRDDAKNTVALQMNSLKPEDTAIYYCALRKGIPYSTSDRVIKGVNDYDYWGQGTQVTVSS
- IC50 [2]: 0.27 nM
- IC50 [3]: 0.299 nM

B7: P23IL3G10 (VHH)
VHH: EVQLVESGGGVVQAGESLRLSCAASGYNVKDYEMGWFRQAPGMEREFAAAISWRGSSTYYADSVKGRFTISRDNAKNTVYLQMSSLKPEDTAVYYCAAGRLYPSSRSRDYDYWGQGTQVTVSS
- koff [1]: 0.00244 s⁻¹

B8: P23IL119A3 (VHH)
VHH: EVQLVESGGGLVQAGGSLRLSCAASGRIFSLPASGNIFNLLTIAWHRQAPGMQRELVATINSGSRTNYADSVKGRFTISRDNAQKTVYLQMNNLKPEDTAVYYCQTSGSGSPNFWGQGTQVTVSS
- IC50 [2]: 0.67 nM

B9: P23IL119G7 (VHH)
VHH: EVQLVESGGGLVQAGGSLTLSCAVSGLTFNNYAMGWFRQVPGKEREFVAAISRSGLRTFYSDSVKGRFTISRDSAKSTVYVQMNNLKPEDTAVYFCAADRRTYYSEGPSLTDTLRYDYWGQGTQVTVSS
- koff [4]: 0.000479 s⁻¹

B10: P23IL3C1 (VHH)
VHH: EVQLVESGGGSVQAGGSLRLSCKVSGIMFSDKGMGWFRQAPGKERETVAATNWSGGSTYYADSVKGRFTISRDNYKNTLHLQMASLKPEDTGIYYCAAAGDSWNSRRIEDYDYWGQGTPVTVSS
- koff [1]: 0.000279 s⁻¹

B11: P23IL 3F11 (VHH)
VHH: EVQLVESGGGLVQAGGSLRLSCAASGSIFSINAMGWFRQAPGKERQFVAAINWSTGSTYYSDSVKGRFTISRDNAKNTVYLQMNSLKPEDTAVYFCASGYLFPSSRGSQYDYWGQGTQVTVSS
- koff [1]: 0.00134 s⁻¹

B12: P23IL81A12 (VHH)
VHH: EVQLVESGGGLVQAGGSLRLSCAASGRTLSSYAMGWFRQAPGKEREFVARISQGGTAIYYADSVKGRFTISRDNAKNTVYLQMNSLKPEDTAVYYCAKDPSPYYRGSAYLLSGSYDSWGQGTQVTVSS
- koff [4]: 0.000113 s⁻¹
